Read-outs that look alike come from different tables or passages of the source.
How the values were obtained:
patients = details: cited from earlier work
[1] = Specific activity with PNPB substrate, sodium cholate as bile-salt activator; type: biochemical; details: 20 mM sodium cholate activation solution, 27° C., after HA-HPLC and SE-HPLC purification
Description: Differences in functional properties are observed between rhBSSL-CHO and BSSL-MAM and from rhBSSL-OVI. The specific activity of rhBSSL-CHO is observed to be higher than that of the other forms of BSSL. The specific activities of BSSL-MAM and rhBSSL-OVI are only 80% of that of rhBSSL-CHO based on mass. Each sample is specifically purified by HA-HPLC and SE-HPLC before determination of specific activity. Specific activity is determined using 4-nitrophenyl ester butyric acid (PNPB) as a substrate for BSSL, and detection of the release of 4-nitrophenol. Briefly, a dilution series of rhBSSL (for example, from 20 to 160 ng activity/mL) is prepared in PBS with 0.1% BSA. 200 μl of these rhBSSL solutions is added to 25 μl of an activation solution containing 20 mM sodium cholate (as bile-salt activator) in PBS with 0.1% BSA. These solutions are preincubated in a spectrophotometer at 27° C. for 5 minutes. Just before measuring, 25 μl of a well-mixed substrate solution containing 5 mM PNPB in PBS-Tween is added. The formation of 4-nitrophenol can be detected by its absorbance at 400 nm and the increase in absorbance is measured during 90 seconds. The active amount of BSSL is determined using a standard curve of an rhBSSL reference standard.

kittens = details: 0.1 mg/mL in kitten-formula mixed with cow milk, 5 days; cited from earlier work
[2] = test system: CF patients (aged 12 to 39 years) with PI; details: single dosing of 0.2 g or 1 g as complement to 25% of regular Creon dosing; cited from earlier work

Molecule: agalsidase alfa: recombinant human alpha-galactosidase A produced in a continuous line of human fibroblasts
- Patients with presence of IgG (patients; in vivo): 55%

Molecule: agalsidase beta: recombinant human alpha-galactosidase A produced in CHO cells
- Patients with presence of IgG (patients; treated patients): almost all patients

B1: BSSL-MAM: native human milk bile-salt-stimulated lipase (protein, UniProt P19835 21-753, looked up)
Bile salt-activated lipase: AKLGAVYTEGGFVEGVNKKLGLLGDSVDIFKGIPFAAPTKALENPQPHPGWQGTLKAKNFKKRCLQATITQDSTYGDEDCLYLNIWVPQGRKQVSRDLPVMIWIYGGAFLMGSGHGANFLNNYLYDGEEIATRGNVIVVTFNYRVGPLGFLSTGDANLPGNYGLRDQHMAIAWVKRNIAAFGGDPNNITLFGESAGGASVSLQTLSPYNKGLIRRAISQSGVALSPWVIQKNPLFWAKKVAEKVGCPVGDAARMAQCLKVTDPRALTLAYKVPLAGLEYPMLHYVGFVPVIDGDFIPADPINLYANAADIDYIAGTNNMDGHIFASIDMPAINKGNKKVTEEDFYKLVSEFTITKGLRGAKTTFDVYTESWAQDPSQENKKKTVVDFETDVLFLVPTEIALAQHRANAKSAKTYAYLFSHPSRMPVYPKWVGADHADDIQYVFGKPFATPTGYRPQDRTVSKAMIAYWTNFAKTGDPNMGDSAVPTHWEPYTTENSGYLEITKKMGSSSMKRSLRTNFLRYWTLTYLALPTVTDQEATPVPPTGDSEATPVPPTGDSETAPVPPTGDSGAPPVPPTGDSGAPPVPPTGDSGAPPVPPTGDSGAPPVPPTGDSGAPPVPPTGDSGAPPVPPTGDSGAPPVPPTGDSGAPPVPPTGDAGPPPVPPTGDSGAPPVPPTGDSGAPPVTPTGDSETAPVPPTGDSGAPPVPPTGDSEAAPVPPTDDSKEAQMPAVIRF
- Specific activity relative to that of rhBSSL-CHO, based on mass [1]: 80%
- Growth rate versus kittens fed formula alone (kittens): twice

B2: rhBSSL-OVI: recombinant human BSSL produced in / isolated from the milk of transgenic sheep (protein, UniProt P19835 21-753, looked up)
Bile salt-activated lipase: B1 Bile salt-activated lipase
modifications: produced in transgenic sheep milk
- Specific activity relative to that of rhBSSL-CHO, based on mass [1]: 80%
- Lipid uptake versus Creon alone [2]: more rapid and efficient lipid uptake
